assay: soluble on expression in E. coli; label from the status in PepcDB or PDB records

Row | Sequence | soluble on expression in E. coli
1 | MNGRVDYLVTEEEINLTRGPSGLGFNIVGGTDQQYVSNDSGIYVSRIKENGAAALDGRLQEGDKILSVNGQDLKNLLHQDAVDLFRNAGYAVSLRVQHRLQVQNGPI | soluble
2 | MAHHHHHHMNKFENFYKVPISYKNRKNEIYKYDNLEYNKMKYGMPEYYRCPYYMHENRNLYNTESCYTPNINVGRNSFYGKTLDPNDKICEENDSVYNILEEDHKEESFKKIECMNKEDDRKKIYNKVEKNDDENIDNKKHNYCEKYEEVYPKDRSSIKIIYNDVDQQIDHNLYDDENEIVCDNEIKKRKKRDRKVFMGKYFFSDIINTIIYPCTNKSLQKYQYGSVENMDYSLYNDIQKGQKIQKVDKIKNKKAPQIIVKF | not soluble
3 | MGSDKIHHHHHHMITHQDLKQLQSLTKVPALSILLPTHRTSPDNKQDPILVKNLVSEATKRLDKEFTSRQLEPLLKQLETLVSEIDYPHTLDGLALYVSHDFAKLYYLPFPVPARVVIDQTFATRDLVYGRHREHRYWVLLLSQASTRLLAGTGETLEEVNDENFPMQMTGPGATTPLPYETDSSYRDDRYRRFFQQVNSALTLYENDSLPLIVGGVERQISFFQEVSQNTQAMSPRGYAYAGTLRGNFDRATIHELTPQVWSIMQSVQEAQQAEALQALDDAMGTQSVVSTIGEVWRLAHEGRGKLLLVEKNYHVPAILTEDGRFELVDQPGGTDVMDDAVDEIIEVVLAKGGKVAIVDDEVLSIYQRIALIFRY | not soluble
4 | MNVLIVGSGGREHALAWKMKQSPKVKNVIVAPGNGGHSERIDINSNDLDAVADFCEKHNIHCVLIGPEEPLSNGLADHLIRIHPNLMVFGPLKDGAQLETSKSFSKHFMKEYGLPTADFVTVSIENVKSLDCVFERLPWKNSVVKADGLAAGKGVIIPRNNAEAVEAARSILHGQFGNAGRTVIIEERLEGYEVSALAFTDGISFKRMPLGKDHKRLLESDLGPNTGMGVVAPVSVPKEVDRQIDEIFEKTLKGLADRKIKYCGVLYAGFMIVDQKPLLLEFNCRFGDPETQVLMRLLESDLFEIISSCVNQTLNTCDINWSTKSVCGVVLASGNYPKSGDKGSPITEIPSPDSTNVVFHAGTSVINSQIVTNGGRILCVTSLADTLHDAREHANKIAQNIQFTGKQFRKDIGKTIDIGTPSLSYGSSGVNIDEGNQFVEDIKLLVKKTLLPGAAQIGGFGAVLDLKKAGFSNDSQLVVGIDGVGTKIEVATHCNNFTGVGYDVVAMCVNDVICHCAKPIAFLDYFVCGKLERSMATQVLTSISEACVEAECSLIGGETAEMPGVYSTHQWDLAGCAIAARESTWPMLPLSSEIRDGDVILGLPSSGLHSNGFSLARKILTVNGVKYNDPLPWDSKSTFGTELLRGTKLYVKKVLPLLSTGLVKGCAHITGGGLTENAIRVLDKNSKDSLVIDCASWKFREIFNWMAAAGPVDTKEMIRTFNCGIGMVLIVSPDNVEKVKKQLRKHEEEFYEIGHVENSKNGEAIKFVNEEKMFQREKYTTQRKRVRVAILISGTGTNMQKLIERSKTPDSNCDVVLVVSNKEGAGGLTIAASYGIPTKVVPHTADRVTGDTELAQVLKDFGTELVCLGGYMRILSPCFISQFPSRIINIHPSLLPAFKGAHALQDALNFGVRIVGCTAHFVDELVDHGDIIAQRPVVVEDTDTIETVRQKIQLQEHEMFPNAMIAVAAKILEK | not soluble
5 | MSAVNRAAVEAVLRQYTDPYLNQDPVSAGCVRDIEVQGDRVTVRMELGYAAGLFKSGWAQMLQLAIEGLDGVSSAKVEISSVIAAHKAQAQIPGLANVKNVVAVASGKGGVGKSTTAANLALALAREGAKVGILDADIYGPSQGIMFGIAEGTRPKIKDQKWFVPIESHGVEVMSMAFLTDDNTPMVWRGPMVSGALLQLVTQTDWGNLDYLVIDMPPGTGDIQLTLAQKVPVAGAVIVTTPQDLALLDARKGVEMFRKVNIPVLGVVENMAVHICSNCGHAEHLFGEGGGEKLASQYDVELLASLPLSMLIREQADGGKPTVIAEPESQIAMVYQELARHVGARIVLQEAAAPAMPNITISDDLEHHHHHH | not soluble
6 | GVKCEPFEHLVIDTPQDFSGAIIERLGKRKAEMKAMNPMSDGYTRLEFEIPARGLIGYRSEFLTDTKGEGVMNHSFLEFRPFSGSVESRKNGALISMENGEATAFSLFNIQERGTLFINPQTKVYVGMV | not soluble
7 | MRRPPIVRCLFFLNDTIVLELEKTRVISERSNEEVIVVIRKTVKGTDGREYTFVAKEGTFEKLTGLGTTIRGHIPGTDSPFYGILEDGEEGLRAWIMTFRVVNRVPIDSETEEELVRLFLPLVERRRIDRSILLYVE | not soluble
8 | KPFNDEKTAKIAEEVQQFYESNATISLNEYLENVGELGYELYLTDGAEKSTYYGGAFRKKDLPDKTIKQVLDGETYHGIDSFDTGIFITGFFDNDVRNTIGVPVQADGKQLALFIRQDPEKQFGE | not soluble
9 | MRVHKVKFLNQHELTKLLALLDLDHGLDWDYFLLLIAKTGLRFGEALGVTPMDFDMAKLTLTINKTWDYKSATGSFAETKNTASVRKVPLDWQVAMQFAAQIKSLPQDKPIFVTDGQRVYNETANDILERKCKRASIPVISIHGLRHTHASLLLYAGVSVGSVARRLGHANMSTTQKTYLHILEHHHHHH | not soluble
10 | MDAEEIRAIFRFSAMEKNMIYSFGIQGDLFLPFLLSLKSGGSWSYATEETKSIAVKDVITYYDEESKTGYTLEKIYFFIDPEVVAKEGVVRRLEKCGTKEERELVERPYIIALRAKRIIFAEVNPGSRKITVRELEKKCIQLKGTPAYSAAHELEHLKKGEVEGIPLWSFEYVKDQ | not soluble
11 | MTEPVHPIADLTDSLLGWASQTELELAQRLAGGGLVIAAGLSDDELERIERLYGIFLTRQLLAGADFAALIGVSPALTLTTLVARARRVVEIDDFVSEFLGGLGLATDESSVIDIDEATAAIMGAIPQSLARFELLGAQEATDALSAIVSLCTQAGIVNNEVPALLEYLDAVNAEGTVSSEDLVAAIAQQENLPLLATALQIAPAAITELIDGVAAVRQFAVDHHDSWFDRSREHLTPLLPRPIEFSVVSELRERPVGTVDREASVGVASREMRPRILFDADRSKVYLRLPEQRLPIADDGTRGEITWRVSIEGTTKIYHTGSPWGDTSGFAESLDVHIERPVRELTVQDETNEITWTVPVLAHDDPALVFSSRGTNVTDKVALHHQSLIVVTPQDVTLTDVVSGDDIVADSETAVEGWDKWVARYLDVSHVTSLSAVEPGKNANMETLRSIDPRQRVRFLAPSEPVDFLKTTGGLPVHSESLIAEFPPTPSGRTE | not soluble
12 | MGSDKIHHHHHHMARQNKRQSDDRELARKFEELLKEGTPGFFDVSVYESIIQYYLEGTKFRKAHRTCDIAMEQHPYSVEIMLLKVQVLMQMTQFEEALEILDRAQLYQPNDTDIQLLRANIMAQQDDFEGAIELLEEILTLAEEKDEIHYHMGVIYQDMGNFEESINHLKEAIMLNSQHEDAIYELSYSLEVLDRLEESIDFFKQLIEKDPYSHFAWFCLGVSYFKQGKLDEALDAYEFVIAINDKYSSAYYNIGECYVYKNEYEKALEYFFQTMDMEDKTADVFYNIGFCYEHLGMHPKAIEFYRKASKADAYFHEAYYGIGKCLEAQDKSYESIHFFKRALKLDEANAEYWLAKANAEYKTGNIISSLEAFEEACVLEPSNPEVWKNWSFVHYESGDMDKAIDLINAGIDEMPGNADLYYRAVAYLITAGRYKEAFNYLENALTLNFDSHTVLFEFFPKLETQKALFRIIDQYRNK | not soluble
13 | VFLPTNAQYQLLVVGVSPWDTPSPSGRISWGSAWPHQARRAQTCQRVRRHWMIDTTEAAYRLTYQPDGTSITVRENLVDILARELLGPIRGPQEVLPFSPRSQYLVGHLAPVKLTGAALIDDNAVQARANAEALAEGGGVPAYAADETTPTPTTTPKTAHPSRA | not soluble
14 | GMQPETSAQYQHRFSQAIRGGEAADGLPQDRLNVYIRLIRNNIHSFIDRCYTETRQYFDSKEWSRLKEGFVRDARAQTPYFQEIPGEFLQYCQSLPLSDGILALMDFEYTQLLAEVAQIPDIPDIHYSNDSKYTPSPAAFIRQYRYDVTHDLQEAETALLIWRNAEDDVMYQTLDGFDMMLLEIMGSSALSFDTLAQTLVEFMPKADNWKNILLGKWSGWIEQRIIIPSLSAISENMEGNSPSQNHLSA | soluble
15 | MAHHHHHHMVWFSAPDNSEFLGDPLPRKARQPKVHLATEVSVEASVPWEDVSSWECGSQTSRNSSRSSTSDNAANGHVANINKFHDRMELIRRLNKRRRNNSTCRESGRTEQWTCQPLYVGVSTFPEMKEMSPKSVGGENVPFWNGAVVHDSPLMTDRSGSEVDKKPLKTRKCAWNLTYVRKNDWPEAHQMHEGDAII | not soluble
16 | MKRTTLVMLLLTLCGFSSASFALSESEAEDLADLTAVFVYLKNDCGYQELPNNEIKRAIVYFAQQNRWDLHNYDSFNMKALGEDSYRDLRGIALPTPVKCKSLARDSLSLLAYAN | not soluble
17 | MSLSEDLRFFEFFAGGGMARAGLGNQWQCLFANDMDRIKASTYIQNWGKDHFDSRDIREVNSEDLERNGDLAWASFPCQDLSVAGNGLGIGSSSAKDFTRSGALWPFLDLIDTLRQEERQPPLLVLENVVGLLTLEGGRDFAAICERLGEIGYRYGAVIIDAKHFLPQSRPRVFIIAVQRNIDIPCKLSRGMATANWHTPTLLRAYKSLTPILHADWVWWELGDAPILQENALESFIQREGVLWNTPEETKRIISMMAPAHLARLENAKCAGGVAVGSLYLRMRREGGINKQRAEITFSPLLGCLRTPRGGASRPRIIVVESGHVRTRLLTICEAARLMGLANTYILPEIYHHAFKVIGDGVAVPAVRFLAERLLEPLAIAAEGHHHHHH | not soluble
18 | MGSDKIHHHHHHMSSNNRKKLLLMGRSGSGKSSMRSIIFSNYSAFDTRRLGATIDVEHSHLRFLGNMTLNLWDCGGQDVFMENYFTKQKDHIFQMVQVLIHVFDVESTEVLKDIEIFAKALKQLRKYSPDAKIFVLLHKMDLVQLDKREELFQIMMKNLSETSSEFGFPNLIGFPTSIWDESLYKAWSQIVCSLIPNMSNHQSNLKKFKEIMNALEIILFERTTFLVICSSNGENSNENHDSSDNNNVLLDPKRFEKISNIMKNFKQSCTKLKSGFKTLILNNNIYVSELSSNMVCFIVLKDMNIPQELVLENIKKAKEFFQ | not soluble
19 | MSLSQPIKLGIITDRVGAAKPYAEPVLQGAQVAAKELNASGGVLGRPIELLVEDDQGRPDLSATAARKMVDSGVAFILSISWTSATQQAQSVTVETGTPHLAPSNSGDTLTTQIANPNFWQTGPLASSQVSTLLAYARSKSFKRVAIIGDNTGLGQLMTQSFKAGIEAAKIQVVSEEVVPRGANSADAQIQRVRASNPDAIFLTGILAPENTLILRAYRLLGLKAPLLGNFSFSNIQYASVAKGLLDGLVFIDAFDPTKPQVQRFIATYTKAAGTAPDNINAYGYDGVMLVADAIRRAGGTDKLKVRDAMQATKGFVGVLGAQGASYGFANGKRTGFDGDGLVVRIYEGDRQGKVQFTGTREGHHHHHH | soluble
20 | MRLPALFLAHGSPMLAIEDNAYTAFLGKLGEGIRPQAVVIFTAHWMTRQPTVSAVEGTYDMIYDFSGFPRELYEVVYLARGSVEWAERVRERLAGVAEVAVDSTRGLDHGSWVLLHRLFPNADIPVVQASVLPWWTPKQLFQLGEALRPLRDEGLMVIGSGGTVHNLMALRWEGHAEADAWAMAFDDWLLSRSAAHSEEVFDYENKAPYAKQAVPTPEHLAPYWIAYGAGDRDQAPRVLFREYQYGSLSLMAVTF | not soluble
